B1: TWIST1: OSMI-1 (protein)
parent chain: MMQDVSSSPVSPADDSLSNSEEEPDRQQPPSGKRGGRKRRSSRRSAGGGAGPGGAAGGGVGGGDEPGSPAQGKRGKKSAGCGGGGGAGGGGGSSSGGGSPQSYEELQTQRVMANVRERQRTQSLNEAFAALRKIIPTLPSDKLSKIQTLKLAARYIDFLYQVLQSDELDSKMASCSYVAHERLSYAFSVWRMEGAWSMSASH
B2: TWIST1: S31A (protein)
parent chain: B1 parent chain

Columns and labels:
[1] = Western blot, KG1a-TWIST1 and SKM1; details: glycan lost; control: untreated cells
[2] = IP / ubiquitin blot, KG1a-TWIST1 and SKM1; details: glycan lost; control: non-treated cells
[3] = CHX chase, TWIST1 stability, KG1a-TWIST1 and SKM1; details: glycan lost; control: untreated cells
Western blot, HEK-293T = details: glycan lost; control: WT flag-TWIST1
[4] = IP / ubiquitin blot, HEK-293T; details: glycan lost; control: WT flag-TWIST1
[5] = CHX chase, TWIST1 stability, HEK-293T; details: glycan lost; control: WT flag-TWIST1

Protein	expression_or_secretion [1]	other: ubiquitination [2]	degradation_or_half_life [3]	expression_or_secretion (Western blot, HEK-293T)	other: ubiquitination [4]	degradation_or_half_life [5]
B1	decreases	increases	decreases	–	–	–
B2	–	–	–	decreases	increases	decreases

From PMC10514931
